Data published in paper PMC9021867 (Cell, 2022).

B1: β-VHH1 (VHH)
VHH: QVQLQESGGGSVQAGGSLRLSCVTSGYTYSSANMAWFRQAPGKEREGVAIITPSGRATTYADSVKGRFTISRDNAANTLYLQMNSLKPEDTAMYYCAADTPPYSGLWYAERTYNYWGQGTQVTVSS
B2: β-VHH3 (VHH)
VHH: QVQLQESGGGSVQAGGSLRLSCTASGFTFDDEDMGWYRQAPGNECELVSSIGSLGRRYYADSVKDRFAISQDNAKNTVYLQMNSLKPEDTAVYYCAATKGGSWLDSILASCQGAFGYWGQGTQVTVSS
B3: β-VHH6 (VHH)
VHH: QVQLQESGGGSVQAGGSLRLSCAASSYTISSVCMGWFRQAPGKEREGVAGIAPDGSTGYGDSVKGRFTISKDNAKNTLYLQMNSLKPEDTAMYYCAAASPGRCFLPRTALEPALYYNWGQGTQVTVSS
B4: β-VHH4 (VHH)
VHH: QVQLQESGGGSVQAGGSLRLSCAASGSTSCSSVMRWYRQAPGKEREFVSSINSDRRTVYADSVKGRFTISQDNAKSTLYLQMNSLKAEDTATYYCQRELYGDSWCQGNYWGQGTQVTVSS

target: Biotinylated human IL-2Rβ ECD (Homo sapiens, UniProt P14784, biotinylated); assay: SPR
Sequence (P14784 27-240): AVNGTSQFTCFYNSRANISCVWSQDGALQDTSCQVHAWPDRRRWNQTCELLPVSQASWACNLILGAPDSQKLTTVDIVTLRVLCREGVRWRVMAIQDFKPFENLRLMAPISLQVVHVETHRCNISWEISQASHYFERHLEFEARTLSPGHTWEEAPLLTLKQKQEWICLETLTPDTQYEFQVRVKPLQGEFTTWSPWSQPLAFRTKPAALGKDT

Binding result, binds:
B1
B2
B3
B4
